Assays:
Test in all cases: Steady-state kinetics of 2-ketoacid decarboxylase (ADH/NADH coupled)
Assay type in all cases: biochemical
Conditions in all cases: other: pH 7.5, 21° C.
CC(=O)C(=O)O = tested on: CC(=O)C(=O)O
Method: (§1) For the native KIVD and KIVD_VLV mutant, 2 ml overnight cultures of XL1B cells were transformed with pQE9 containing N-terminal his-tagged KIVD enzymes and grown in Terrific Broth (BP biomedical, Cat#3046-042) with 50 μg/mL of carbenicillin. (Fisher scientific, Cat# BP2648-5) For the GEOs, 2 ml overnight cultures of BLR cells were transformed with pet29b+ plasmid containing N-terminal his-tagged GEOs, and grown in Terrific Broth with 50 μg/mL of kanamycin. (Fisher scientific, Cat# BP906-5) These cultures were diluted 1:1000 in 500 mL of Terrific Broth with 1 mM MgSO4, 1% glucose, and 50ug/mL of corresponding antibiotics, then grown at 37° C. for 24 hours. Cultures were pelleted down at 4700 rpm for 10 mins and resuspended in auto-induction media (LB broth, 1 mM MgSO4, 0.1 mM TPP, 1×NPS, and 1×5052) for induction at 18° C. for 34 hours. At the end of induction, cells were centrifuged (4700 rpm, 4° C., 20 minutes), supernatant was removed, and cells were resuspended in 40 mL lysis buffer (100 mM Hepes pH 7.5, 100 mM NaCl, 10% glycerol, 0.1 mM TPP, 1 mM MgSO4, 10 mM Imidazole, 1 mM TCEP) and 1 mM PMSF) and sonicated for 2 minutes. Lysed cells were centrifuged at 4700 rpm at 4° C. for 60 mins to remove cell debris. Supernatant was loaded on gravity flow column with 700 μl of cobalt slurry (Fisher scientific, CAT# PI-90091) washed with 10 ml of wash buffer (100 mM Hepes pH 7.5, 100 mM NaCl, 10% glycerol, 0.1 mM TPP, 1 mM MgSO4, 10 mM Imidazole, and 1 mM TCEP). Cobalt bead bed was washed with 15 ml of wash buffer 5 times and proteins were eluted with 1000 μl of elution buffer (100 mM Hepes pH 7.5, 100 mM NaCl, 10% glycerol, 0.1 mM TPP, 1 mM MgSO4, 200 mM Imidazole, and 1 mM TCEP). Protein samples were immediately buffer exchanged with spin concentrators (Satorius, CAT# VS0112) into storage buffer (100 mM Hepes pH 7.5, 100 mM NaCl, 10% glycerol, 0.1 mM TPP, 1 mM MgSO4, and 1 mM TCEP) and stored at 4° C. until kinetics characterization. Protein concentrations were determined using a Synergy H1 spectrophotometer (Biotek) by measuring absorbance at 280 nm using their calculated extinction coefficients with ExPASy ProtParam Tool.^33 All other buffers and salts were purchased from Fisher Scientific unless otherwise specified.
(§2) The kcat and KM values of selective KIVD mutants were measured for the substrates: C3, C5, isoC5, and C8. All substrates were dissolved in MilliQ H2O and pH was adjusted to 7.5 as necessary. Activity was measured at 0.005 mM to 10 mM substrates. The assay was performed in a 96-well half-area plate. Each reaction contains a final concentration of 0.5 mM NADH, 1 mM DTT, 0.1 mM TPP, 1 mM MgSO4, reaction buffer (100 mM Hepes, 100 mM NaCl, 10% glycerol, pH 7.5) and ADH (Sigma Aldrich, A7011, 10 U/ml for C3, C5 and C8 reactions, 500 U/ml for isoC5 reactions). A wide range of ketoacid decarboxylase concentrations, 4.5 nM-15 μM, were used according to the activity of each enzyme toward different substrates in order to perform steady state kinetics measurement over a period of an hour. Absorbance readings were taken every 1-minute at OD340 at 21° C. for 60 minutes using the Synergy H1. Kinetic parameters (kcat and KM) were determined by fitting initial velocity versus substrate concentration data to the Michaelis-Menten equation.

CC(C)C(=O)C(=O)O = tested on: CC(C)C(=O)C(=O)O
Method: as §1, §2

CCCC(=O)C(=O)O = tested on: CCCC(=O)C(=O)O
Method: as §1, §2

CCCCCCC(=O)C(=O)O = tested on: CCCCCCC(=O)C(=O)O
Method: as §1, §2

1OVM (1OVM_P23234), ketoacid decarboxylase, SEQ ID NO: 26 (Enterobacter cloacae)
Km (CC(=O)C(=O)O): 7.5 ± 0.1 mM
kcat (CC(=O)C(=O)O): 0.2 ± 0.01 s⁻¹
kcat/Km (CC(=O)C(=O)O): 32 ± 0.5 M⁻¹ s⁻¹
Km (CC(C)C(=O)C(=O)O): 6.1 ± 0.6 mM
kcat (CC(C)C(=O)C(=O)O): 7.8 ± 0.4 s⁻¹
kcat/Km (CC(C)C(=O)C(=O)O): 1300 ± 130 M⁻¹ s⁻¹
Km (CCCC(=O)C(=O)O): 0.5 ± 0.1 mM
kcat (CCCC(=O)C(=O)O): 1 ± 0.1 s⁻¹
kcat/Km (CCCC(=O)C(=O)O): 2100 ± 420 M⁻¹ s⁻¹
Km (CCCCCCC(=O)C(=O)O): 0.021 ± 0.001 mM
kcat (CCCCCCC(=O)C(=O)O): 1.7 ± 0.1 s⁻¹
kcat/Km (CCCCCCC(=O)C(=O)O): 80000 ± 4300 M⁻¹ s⁻¹

Reference: patent US10829756B2, “Discovery of enzymes from the alpha-keto acid decarboxylase family” (priority 2015, dated 2020)
